assay: yeast display, Sf9 membrane polyspecificity reagent, FACS + sequencing; frameworks hold sequencing errors
Method in brief: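 Polyreactivity labels are assigned by the sorting gate from which each nanobody was recovered. The gates were low and high (top ~1%), set on anti-HA fluorescence for expression and streptavidin fluorescence for reagent binding. Before sorting, galactose-induced (36–48 hours) yeast display cells were stained for 1 hour at 4 °C with 10% biotinylated, detergent-solubilized Sf9 membrane reagent.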

Sequence | polyreactivity (PSR sort gate)
QVQLVESGGGLVQAGGSLRLSCAASGRIFALYAMGWYRQAPGKERELVAAITWRGGRTRYADSVKGRFTISRDNAKNTVYLQMNSLKPEDTAVYYCAKEYVKYQWDYGYWGQGTQVTVSS | high polyreactivity
QVQLVESGGGLVQAGGSLRLSCAASGRIFAPYAMGWYRQAPGKERELVAAITSGGSTNYADSVKGRFTISRDNAKNTVYLQMNSLKPEDTAVYYCAAEASYNYGKYVVTYDYWGQGTQVTVSS | high polyreactivity
QVQLVESGGGLVQAGGSLRLSCAASGRIFAPYAMGWYRQAPGQEREFVATITVSGARTRYADSVKGRFTISRDNAKNTVYLQMNSLKPEETAVYYCAASKFYSWRATRKVSYDYWGQGTQVTVSS | high polyreactivity
QVQLVESGGGLVQAGGSLRLSCAASGRIFAPYDMGWYRQAPGKERELVAAISRSGGSTYYADSVKGRFTISRDNAKNSVYFQLNSLKPEDTAVYYCAASYPGRYWLYRYEYWGQGTQVTVSS | high polyreactivity
QVQLVESGGGLVQAGGSLRLSCAASGRIFAQYAMGWYRQAPGKERELVADISSGVRTYADSVKGRFTISRDNAKNTVYLQMNSLKPEDTAVYYCNAYYIIFTRNDYWGQGTQVTVSS | low polyreactivity
QVQLVESGGGLVQAGGSLRLSCAASGRIFARKAMGWYRQAPGKEGELVARIRASGGSTYYADSVKGRFTISRDNAKNTVYLQMNSLKPEDTAVYYCNARTSSPYRVDYWGQGTQVTVSS | high polyreactivity
QVQLVESGGGLVQAGGSLRLSCAASGRIFARNALGWYRQAPGKEGELVARIRASGGSTYYADSVKGRFTISRDNAKNTVYLQMNSLKPEDTAVYYCNARTSSPYRVDYWGQGTQVTVSS | high polyreactivity
QVQLVESGGGLVQAGGSLRLSCAASGRIFARYAMGWYRQAPGKERELVAAITVSGDNTYYADSVKGRFTISRDNAKNTVYLQMNSLKPEDTAVYYCAVRAVLLFGFFEYDYWGQGTQVTVSS | low polyreactivity
QVQLVESGGGLVQAGGSLRLSCAASGRIFARYTMGWYRQAPGKERELVATITGRGGRTYADSVKGRFTISRDNAKNTVYLQMNSLKPEVTAVYYCNAGGRTASRRYYWGQGSQVTVSS | low polyreactivity
QVQLVESGGGLVQAGGSLRLSCAASGRIFASNAMGWYRQAPGKERELVAAISRTGGTTYYADSVKGRFTISRDNAKNTVYLQMNSLKPEDTAVYYCNAVKAPYLRYDYWGQGTQVTVSS | high polyreactivity
QVQLVESGGGLVQAGGSLRLSCAASGRIFASNAMGWYRQAPGKERELVAAITTTGGSTYYADSVKGRFTISRDNAKNTVYLQMNSLKPEDTAVYYCAARAIPRVRRYGSMNYWGQGTQVTVSS | high polyreactivity
QVQLVESGGGLVQAGGSLRLSCAASGRIFASYAMGWYRQAPGKERELVAAINSNGGSKYYADSVKGRFTISRDNAKNTVYLQMNSLKPEDTAVYYCAAGARYKMGYWGQGTQVTVSS | high polyreactivity
QVQLVESGGGLVQAGGSLRLSCAASGRIFATNAMGWYRQAPGKERELVATITRSAGRTYYADSVKGRFTISRDNAKNTVYLQMNSLKPEDTAVYYCAASYWDTDPGYREYDYWGQGTQVTVSS | low polyreactivity
QVQLVESGGGLVQAGGSLRLSCAASGRIFATNAMGWYRQAPGKERELVATITRSAGRTYYADSVKGRFTISRDTAKNTVYLQMNSLKPEDTAVYYCAASYWDTEPGYREYDYWGQGTQVTVSS | low polyreactivity
QVQLVESGGGLVQAGGSLRLSCAASGRIFATYAMGWYRQAPGKERELVAAISDSGGRTYYADSVKGRFTISRDNAKNTVYLQMNSLKPEDTAVYYCARRAVYGIFDYWGQGTQVTVSS | high polyreactivity
QVQLVESGGGLVQAGGSLRLSCAASGRIFAVYAMGWYRQAPGKERELVATISSSGSTHYADSVKGRFTISRDNAKNTVYLQMNSLKPEDTAVYYCNAGGSELKLGYDYWGQGTQVTVSS | low polyreactivity
QVQLVESGGGLVQAGGSLRLSCAASGRIFAWNDMGWYRQAPGKERELVAAITSGGSTYYADSVKGRFTISRDNAKNTVYLQMNSLKPEDTAVYYCAAEVYVPDYFQHKFDVEYEYWGQGTQVTVSS | low polyreactivity
QVQLVESGGGLVQAGGSLRLSCAASGRIFAWNDMGWYRQAPGKERELVAAITSGGSTYYADSVKGRFTISRDNAKNTVYLQMNSLKPEDTAVYYCAAGSAYYSQRYFAYGYDSWGQGTQVTVSS | low polyreactivity
QVQLVESGGGLVQAGGSLRLSCAASGRIFAWNDMGWYRQAPGKESELVAAITSGGSTYYADSVKGRFTISRDNAKNTVYLQMNCLKPEDTAVYYCAAGSAYYSQRYFAYGYDSWGQGTQVTVSS | low polyreactivity
QVQLVESGGGLVQAGGSLRLSCAASGRIFAYNAMGLYRQAPGKERELVADISSGGNTYYADSVKGRFTISRDNAKNTVYLQMNSLKPEDTAVYYCAKYTYDYWGQGTQVTVSS | low polyreactivity

Sequence | polyreactivity (PSR sort gate)
QVQLVESGGGLVQAGGSLRLSCAASGRIFAYNAMGWYRQAPGKERELVAAITWSGDSTYYADSVKGRFTISRDNAKNSVYLQMNSLKPVDTAVYYCATDALFKTSTRWKYDYWGQGTQVTVSS | low polyreactivity
QVQLVESGGGLVQAGGSLRLSCAASGRIFAYNAMGWYRQAPGKERELVATITSSGDGTSYADSVKGRFTISRDNAKNTVYLQMNSLKPEDTAVYYCNKVTRVRRDPYDAVAYRGGYWGQGTQVTVSS | high polyreactivity
QVQLVESGGGLVQAGGSLRLSCAASGRIFAYNDMGWYRQAPGKEREFVAAITWSGTTFSADSVKGRFTISRDNAKNTVYLQMNSLNPEDTAVYYCAAVPYTRWKGADGDYDDVYTEYWGQGTQVTVSS | high polyreactivity
QVQLVESGGGLVQAGGSLRLSCAASGRIFAYNTMGWYRQAPGKEREMVAVITSGGSTNYADSVKGRFTISRDNAKITVYLQMNSLKPEDTAVYYCAKRPYGRSGGSRYDYWGHGTQVTVSS | high polyreactivity
QVQLVESGGGLVQAGGSLRLSCAASGRIFAYYAMGWYRQAPGKERELVAAITRRSGDTTYYADSVKGRFTISRDNAKNTVYLQMNSLKPEDTAVYYCAARNPSFSSQYYSWGQGTQVTVSS | high polyreactivity
QVQLVESGGGLVQAGGSLRLSCAASGRIFAYYAMGWYRQAPGKERELVATIRSGGDTNYADSVKGRFTISRDNAKNTVYLQMNSLKPEDTAVYYCNALYDWWYPHEYNYWGQGTQVTVSS | low polyreactivity
QVQLVESGGGLVQAGGSLRLSCAASGRIFCVYAMGWYRQAPGKERELVAAIDTSDGSTNYADSVKGRFTISRDNAKYTVYLQMNSLKPEDTAVYYCNATDSYVPFDYWGQGTQVTVSS | low polyreactivity
QVQLVESGGGLVQAGGSLRLSCAASGRIFDDNAMGWDRQAPGKETELVAAISASGGSTYYADSVKGRFTISRVNAKNTVYLQMNSLKPEDTAVYYCAKAPGQDTPYPYGYWGQGTQVTVSS | high polyreactivity
QVQLVESGGGLVQAGGSLRLSCAASGRIFDDNAMGWYRQAPGKERELVAAISSGDSTKYADSVKGRFTISRDNAKNTVYLQMNSLKPEDTAVYYCNRRKTNSRYDYWGQGTQVTVSS | low polyreactivity
QVQLVESGGGLVQAGGSLRLSCAASGRIFDGYAMGWNRKAPGKERELVPAISGGGNTKYADSEKGRFTISRDNAKNTVYLQMNSLKPEDTAVYYCAARGYYYGYRFDSWGQGTQVTVSS | high polyreactivity
QVQLVESGGGLVQAGGSLRLSCAASGRIFDGYAMGWYRQAPGKERELVASISYDGGSTYYADSVQGRFTISRDNAKNTVYLQMNSLKPEDTAVYYCAAVYRRRSYTFYYWGQGTQVTVSS | high polyreactivity
QVQLVESGGGLVQAGGSLRLSCAASGRIFDGYAMGWYRQAPGKERELVATITRGGSTNYADSVKRPFTISRDNAKNTVYIQMNSLKPEDTAVYYCNADIRRHGGYAHEYWGEGTQVTVSS | low polyreactivity
QVQLVESGGGLVQAGGSLRLSCAASGRIFDGYAMGWYRQAPGKESELVATIDVSGGRTTYADSVKGRFTISRDNAKNTVYLQMNSLKPEDTAVYYCNVDYYWSSGGTDYDYWGQGTQVTVSS | low polyreactivity
QVQLVESGGGLVQAGGSLRLSCAASGRIFDGYDMGWYRQAPGKERELVAAITSVGSTNYADSVKGRFTISRDNAKNTVYLQMNSLKPEDTAVYYCAAVLYVFYDEYGYWEYFSQYDYWGQGTQVTVSS | low polyreactivity
QVQLVESGGGLVQAGGSLRLSCAASGRIFDHNAMGWYRPAPGKERELVAAIDWSGGSTYYADSVKGRFTISRDNAKNTVYLQMNSLKPEDTAVYYCNVYWHTFSWDDYGYWGQGTQVTVSS | low polyreactivity
QVQLVESGGGLVQAGGSLRLSCAASGRIFDHYAMGWYRQAPGKERELVAAINSGGTTNYADSVKGRFTISRDNAKNTVYLQMNSLKPEETAVYYCAARPRKGQYYFGGNYWGQGTQVTVSS | low polyreactivity
QVQLVESGGGLVQAGGSLRLSCAASGRIFDIYAMGWYRQAPGKERELVATITRSAGRTYYADSVKGRFTISRDNAKNTVYLQMNSLKPEDTAVYFCAASYWDTEPGYREYEYWGQGTQVTVSS | low polyreactivity
QVQLVESGGGLVQAGGSLRLSCAASGRIFDIYTMGWYRQAPGKERELVASITKRGGSTYYADSVKGRFTISRDNAKNTVYLQMNSLKPEDTAVYYCNAVYSWYRRYGLEGYWGQGTQVTVSS | high polyreactivity
QVQLVESGGGLVQAGGSLRLSCAASGRIFDKYTMGWYRQAPGKERELVAAISKSGSGTFYADSVKGRFTISRDNAKNTVYLQMNSLKPEDTAVYYCARVYTVGTGRSWRLDYCGQGTQVTVSS | high polyreactivity
QVQLVESGGGLVQAGGSLRLSCAASGRIFDLNAMGWYRQAPGKERELVAAITNTGSTNYADSVKGRFTISRDNAKNTVYLQMNSLKPEDTAVYYCARTYWLRYSGYRDDEYDYWGQGTQVTVSS | low polyreactivity

From the nanobody polyreactivity screen of Harvey et al. (2022)
